Assay results published in PMC12102759 (2025).

B1: NOTCH4 peptide 1606-1621 (Neurogenic locus notch homolog protein 4), 16-mer library wild type / NSP9 (ORF1ab Nsp9, residues 4141-4253) (parent complex)
chain 1: QGAWLGAPEPWEPLLD
chain 2: NNELSPVALRQMSCAAGTTQTACTDDNALAYYNTTKGGRFVLALLSDLQDLKWARFPKSDGTGTIYTELEPPCRFVTDTPKGPKVKYLYFIKGLNNLNRGMVLGSLAATVRLQ
B2: AZIN2 peptide 1-16 (Antizyme inhibitor 2), 16-mer library wild type / NSP3 ADRP (ORF1ab Nsp3b ADRP, residues 1023-1192) (parent complex)
chain 1: MAGYLSESDFVMVEEG
chain 2: not shown

Variants of: B1
Assay: bait immobilised on MaxiSorp plates (10 µg), library pre-cleared on GST, 2 h binding at 4 °C, five washes; one round per day, days 1-4; value from days 2 and 3
In the case of chain 1 QGAWLGAPEPSEPLLD [chain 1 W11S], the screen value is reported as 0.000466 average fractional NGS count over selection days 2 and 3 (reads of this peptide / all reads for the bait, averaged over …. chain 1 QGAWLGAPEPTEPLLD [chain 1 W11T] was tested, and the screen value was 0.000139 average fractional NGS count over selection days 2 and 3 (reads of this peptide / all reads for the bait, averaged over …. With chain 1 QGAWLGAPEPWEQLLD [chain 1 P13Q] the screen value was 0.000154 average fractional NGS count over selection days 2 and 3 (reads of this peptide / all reads for the bait, averaged over …. In the case of chain 1 QGAWLGAPEPWEILLD [chain 1 P13I], the screen value is reported as 0.00354 average fractional NGS count over selection days 2 and 3 (reads of this peptide / all reads for the bait, averaged over …. For chain 1 QGAWLGAPEPWEWLLD [chain 1 P13W], the screen value was 0.000306 average fractional NGS count over selection days 2 and 3 (reads of this peptide / all reads for the bait, averaged over …. In the case of chain 1 QGAWLGAPEPWEKLLD [chain 1 P13K], the screen value is reported as 0.00839 average fractional NGS count over selection days 2 and 3 (reads of this peptide / all reads for the bait, averaged over …. For chain 1 QGAWLGAPEPWEYLLD [chain 1 P13Y], the screen value was 0.000242 average fractional NGS count over selection days 2 and 3 (reads of this peptide / all reads for the bait, averaged over …. For chain 1 QGAWLGAPEPWEHLLD [chain 1 P13H], the screen value was 0.000211 average fractional NGS count over selection days 2 and 3 (reads of this peptide / all reads for the bait, averaged over …. With chain 1 QGAWLGAPEPWEGLLD [chain 1 P13G] the screen value was 0.00615 average fractional NGS count over selection days 2 and 3 (reads of this peptide / all reads for the bait, averaged over …. chain 1 QGAWLGAPEPWEELLD [chain 1 P13E] was tested, and the screen value was 0.000762 average fractional NGS count over selection days 2 and 3 (reads of this peptide / all reads for the bait, averaged over ….

Variants of: B2
Assay: as above
With chain 1 V11L the screen value was 0.0066 average fractional NGS count over selection days 2 and 3 (reads of this peptide / all reads for the bait, averaged over …. In the case of chain 1 V11T, the screen value is reported as 0.000107 average fractional NGS count over selection days 2 and 3 (reads of this peptide / all reads for the bait, averaged over …. chain 1 V11E was tested, and the screen value was 0.000156 average fractional NGS count over selection days 2 and 3 (reads of this peptide / all reads for the bait, averaged over …. In the case of chain 1 V11I, the screen value is reported as 0.195 average fractional NGS count over selection days 2 and 3 (reads of this peptide / all reads for the bait, averaged over …. For chain 1 V11H, the screen value was 7.39e-05 average fractional NGS count over selection days 2 and 3 (reads of this peptide / all reads for the bait, averaged over …. In the case of chain 1 V11M, the screen value is reported as 0.000364 average fractional NGS count over selection days 2 and 3 (reads of this peptide / all reads for the bait, averaged over …. With chain 1 S8T the screen value was 0.00377 average fractional NGS count over selection days 2 and 3 (reads of this peptide / all reads for the bait, averaged over …. With chain 1 S8H the screen value was 6.7e-05 average fractional NGS count over selection days 2 and 3 (reads of this peptide / all reads for the bait, averaged over …. With chain 1 S8M the screen value was 0.000908 average fractional NGS count over selection days 2 and 3 (reads of this peptide / all reads for the bait, averaged over …. For chain 1 E7K, the screen value was 0.00106 average fractional NGS count over selection days 2 and 3 (reads of this peptide / all reads for the bait, averaged over …. In the case of chain 1 E14M, the screen value is reported as 0.000122 average fractional NGS count over selection days 2 and 3 (reads of this peptide / all reads for the bait, averaged over …. With chain 1 E14N the screen value was 0.000346 average fractional NGS count over selection days 2 and 3 (reads of this peptide / all reads for the bait, averaged over …. With chain 1 E14R the screen value was 0.000473 average fractional NGS count over selection days 2 and 3 (reads of this peptide / all reads for the bait, averaged over …. For chain 1 E14S, the screen value was 0.000258 average fractional NGS count over selection days 2 and 3 (reads of this peptide / all reads for the bait, averaged over …. In the case of chain 1 E14P, the screen value is reported as 0.0011 average fractional NGS count over selection days 2 and 3 (reads of this peptide / all reads for the bait, averaged over …. chain 1 E14Q was tested, and the screen value was 0.00039 average fractional NGS count over selection days 2 and 3 (reads of this peptide / all reads for the bait, averaged over …. chain 1 Y4W was tested, and the screen value was 0.00197 average fractional NGS count over selection days 2 and 3 (reads of this peptide / all reads for the bait, averaged over …. For chain 1 D9K, the screen value was 0.00156 average fractional NGS count over selection days 2 and 3 (reads of this peptide / all reads for the bait, averaged over …. In the case of chain 1 D9G, the screen value is reported as 0.000412 average fractional NGS count over selection days 2 and 3 (reads of this peptide / all reads for the bait, averaged over …. For chain 1 D9N, the screen value was 0.0514 average fractional NGS count over selection days 2 and 3 (reads of this peptide / all reads for the bait, averaged over …. chain 1 D9Q was tested, and the screen value was 0.000191 average fractional NGS count over selection days 2 and 3 (reads of this peptide / all reads for the bait, averaged over …. With chain 1 G16H the screen value was 0.000328 average fractional NGS count over selection days 2 and 3 (reads of this peptide / all reads for the bait, averaged over …. With chain 1 G16F the screen value was 0.000171 average fractional NGS count over selection days 2 and 3 (reads of this peptide / all reads for the bait, averaged over …. chain 1 G16D was tested, and the screen value was 0.00105 average fractional NGS count over selection days 2 and 3 (reads of this peptide / all reads for the bait, averaged over …. In the case of chain 1 G16P, the screen value is reported as 9.14e-05 average fractional NGS count over selection days 2 and 3 (reads of this peptide / all reads for the bait, averaged over …. For chain 1 G16S, the screen value was 0.000137 average fractional NGS count over selection days 2 and 3 (reads of this peptide / all reads for the bait, averaged over …. chain 1 G16E was tested, and the screen value was 0.000344 average fractional NGS count over selection days 2 and 3 (reads of this peptide / all reads for the bait, averaged over …. In the case of chain 1 G16A, the screen value is reported as 0.00182 average fractional NGS count over selection days 2 and 3 (reads of this peptide / all reads for the bait, averaged over …. chain 1 G16V was tested, and the screen value was 0.000213 average fractional NGS count over selection days 2 and 3 (reads of this peptide / all reads for the bait, averaged over …. With chain 1 G16N the screen value was 0.00027 average fractional NGS count over selection days 2 and 3 (reads of this peptide / all reads for the bait, averaged over …. With chain 1 G16L the screen value was 0.000127 average fractional NGS count over selection days 2 and 3 (reads of this peptide / all reads for the bait, averaged over …. In the case of chain 1 G16Q, the screen value is reported as 0.000216 average fractional NGS count over selection days 2 and 3 (reads of this peptide / all reads for the bait, averaged over …. In the case of chain 1 V13T, the screen value is reported as 8.71e-05 average fractional NGS count over selection days 2 and 3 (reads of this peptide / all reads for the bait, averaged over …. In the case of chain 1 V13H, the screen value is reported as 0.00368 average fractional NGS count over selection days 2 and 3 (reads of this peptide / all reads for the bait, averaged over …. With chain 1 V13M the screen value was 0.000618 average fractional NGS count over selection days 2 and 3 (reads of this peptide / all reads for the bait, averaged over …. With chain 1 V13I the screen value was 0.00423 average fractional NGS count over selection days 2 and 3 (reads of this peptide / all reads for the bait, averaged over …. For chain 1 G3Q, the screen value was 0.000537 average fractional NGS count over selection days 2 and 3 (reads of this peptide / all reads for the bait, averaged over …. In the case of chain 1 G3M, the screen value is reported as 0.000375 average fractional NGS count over selection days 2 and 3 (reads of this peptide / all reads for the bait, averaged over …. In the case of chain 1 G3D, the screen value is reported as 0.00677 average fractional NGS count over selection days 2 and 3 (reads of this peptide / all reads for the bait, averaged over …. With chain 1 G3K the screen value was 0.00086 average fractional NGS count over selection days 2 and 3 (reads of this peptide / all reads for the bait, averaged over …. In the case of chain 1 G3H, the screen value is reported as 8.37e-05 average fractional NGS count over selection days 2 and 3 (reads of this peptide / all reads for the bait, averaged over …. In the case of chain 1 G3R, the screen value is reported as 7.43e-05 average fractional NGS count over selection days 2 and 3 (reads of this peptide / all reads for the bait, averaged over …. In the case of chain 1 E15P, the screen value is reported as 7.42e-05 average fractional NGS count over selection days 2 and 3 (reads of this peptide / all reads for the bait, averaged over …. For chain 1 E15T, the screen value was 0.000718 average fractional NGS count over selection days 2 and 3 (reads of this peptide / all reads for the bait, averaged over …. chain 1 E15N was tested, and the screen value was 0.000739 average fractional NGS count over selection days 2 and 3 (reads of this peptide / all reads for the bait, averaged over …. With chain 1 E15H the screen value was 0.00102 average fractional NGS count over selection days 2 and 3 (reads of this peptide / all reads for the bait, averaged over …. With chain 1 E15S the screen value was 0.00159 average fractional NGS count over selection days 2 and 3 (reads of this peptide / all reads for the bait, averaged over …. With chain 1 E15D the screen value was 9.82e-05 average fractional NGS count over selection days 2 and 3 (reads of this peptide / all reads for the bait, averaged over …. With chain 1 M12H the screen value was 0.000156 average fractional NGS count over selection days 2 and 3 (reads of this peptide / all reads for the bait, averaged over …. For chain 1 M12S, the screen value was 0.000927 average fractional NGS count over selection days 2 and 3 (reads of this peptide / all reads for the bait, averaged over …. chain 1 M12N was tested, and the screen value was 0.00321 average fractional NGS count over selection days 2 and 3 (reads of this peptide / all reads for the bait, averaged over …. For chain 1 M12A, the screen value was 0.00221 average fractional NGS count over selection days 2 and 3 (reads of this peptide / all reads for the bait, averaged over …. chain 1 M12Y was tested, and the screen value was 0.000582 average fractional NGS count over selection days 2 and 3 (reads of this peptide / all reads for the bait, averaged over ….
